Results reported in patent US20220193186A1, “METHOD OF TREATING AND PREVENTING BONE AND JOINT INFECTIONS” (CONTRAFECT CORPORATION, priority 2019, published 2022).
Positions count from the first letter of the chain named. In names and notes the source's numbering stands. In brackets after ≈: the same amount, converted by molar mass.

Columns and labels:
MRSA IDRL-6169 biofilm = test: Minimum biofilm inhibitory and bactericidal concentrations; type: cell-based, Staphylococcus aureus; conditions: CF-301 testing with 0.5 mM DL-dithiothreitol and 25% horse serum
MRSA IDRL-6169 [1] = test: Acute MRSA osteomyelitis in rats, quantitative culture of tibia (Example 4); type: in vivo, Sprague Dawley rats; conditions: rat tibia, daptomycin 60 mg/kg i.p. every 12 hours for four days, CF-301 single dose 40 mg/kg tail vein; for mean (±SD) bacterial density: Day 12 (4 days after start of therapy); for reduction compared to untreated rats: Day 12
[2] = Body weight of rats in osteomyelitis model (Example 6); type: in vivo, Sprague Dawley rats; conditions: mean; for Body weight on Day 1: time of surgery (before treatment); for Body weight on Day 8: immediately prior to treatment; for Body weight on Day 12: time of sacrifice, without or with DAP 60 mg/kg
Method: (§1) The following six treatment groups were identified: (1) control/no treatment (n=18); (2) 60 mg/kg daptomycin (DAP) administered subcutaneously twice daily for 4 days (n=17); (3) 40 mg/kg pp296 administered intravenously daily for 4 days (n=17); (4) 40 mg/kg pp296 administered intravenously daily for 4 days plus 60 mg/kg DAP administered subcutaneously twice daily for 4 days (n=17); (5) 100 mg/kg pp296 administered intravenously once as a single dose on treatment day 1 (n=17); and (6) 100 mg/kg pp296 administered intravenously once as a single dose on treatment day 1 plus 60 mg/kg DAP administered subcutaneously twice daily for 4 days (n=17). When daptomycin was administered together with pp296, it was given 15 minutes prior to pp296, which was maintained on ice.
Additionally, body weights of the animals were monitored as a marker of general health status during the study. The mean body weight of the animals at the time of surgery (day 1), immediately prior to treatment (day 8), and at the time of sacrifice (day 12) are shown below in Table 5.

[3] = system: methicillin-resistant Staphylococcus aureus IDRL-6169; test: Rat osteomyelitis model, quantitative culture of tibia (Example 6); type: in vivo, Sprague Dawley rats; conditions: for Mean log10 CFU/g / Median log10 CFU/g: rat tibia bone; for Mean log10 CFU/g reduction: vs no treatment
Method: Agents Chemother. 2019 Sep. 23; 63(10). Specifically, osteomyelitis was established in the rats by bending the knee joint, inserting a 21G needle into the tibial process, and injecting 10 μl […] and 50 μl of about 10^6-10^8 colony forming units (cfu) suspension of methicillin-resistant Staphylococcus aureus IDRL-6169.
as §1
Animals were sacrificed twelve hours after the last treatment was administered, and the tibia were collected, weighed, and cryopulverized for quantitative bacterial culture. The log10 CFU counts/g of tibia bone was determined using the Wilcoxon rank sum test, adjusted with a false discovery rate approach.

MRSA IDRL-6169 [4] = test: MIC by broth microdilution; type: cell-based, Staphylococcus aureus; conditions: MRSA IDRL-6169, broth microdilution, CF-301 testing with 0.5 mM DL-dithiothreitol and 25% horse serum
[5] = system: S. epidermidis isolate NRS6 biofilms; test: Disruption of biofilms formed in human synovial fluid (fluorescent imaging); type: cell-based
Method: Macroscopic analysis of CF-301 activity on biofilms, which were formed in human synovial fluid, was performed in the manner described in Dastgheyb et al. (2015) JID 211:641-50 and Dastgheyb et al. (2015) AAC 59:e04579-14. Briefly, 10^8 CFUs of S. epidermidis isolate NRS6 were incubated for 24 hours at 37° C. in 24-well plates containing HSF. After biofilm formation, the wells were stained with ethidium bromide (EtBr) and treated with 0.1 or 1 μg/mL CF-301 for 2 hours. The biofilms were visualized by UV fluorescent imaging. Untreated controls were also examined.
The biofilms were also stained with Alexa Flour^488-WGA, which stained the exopolysaccharide in the biofilms (and individual bacteria) and propidium iodide (PI) which stained the entire biofilm. The biofilms were then visualized by fluorescence microscopy. As evidenced in FIG. 3, the S. epidermidis biofilms formed in HSF were eliminated after two hours of treatment with 0.1 ug/mL or 1 ug/mL CF-301.

[6] = system: multiple drug resistant (MDR) Staphylococcus epidermidis prosthetic knee infection; test: CF-301 during arthroscopic DAIR in patients with prosthetic knee infection
[7] = system: S. epidermidis clinical isolates; test: MIC by broth microdilution (CLSI) in caMHB-HSF and caMHB-HSD; type: cell-based; conditions: S. epidermidis (N = 53)
Text: More particularly MIC values for a lysin may be determined against e.g., S. epidermidis or S. aureus in e.g., Mueller-Hinton broth (MHB) supplemented with physiological salt concentrations and synovial fluid, such as human synovial fluid. Minimum Inhibitory Concentrations (MICs) of a lysin against e.g., S. epidermidis may be determined using broth microdilution (BMD) following Clinical and Laboratory Standards Institute (CLSI) methodology (M07-A11, 2018, which is herein incorporated by reference in its entirety) in a non-standard medium (caMHB supplemented to 50% with human synovial fluid (caMHB-HSF)). See Examples.
Minimum Inhibitory Concentrations (MICs) of the CF-301 lysin (SEQ ID NO: 1) against S. epidermidis were determined using broth microdilution (BMD) following CLSI methodology (M07-A11, 2018) in a non-standard medium (caMHB supplemented to 25% with horse serum and 0.5 mM with DTT (caMHB-HSD)) approved for use by the CLSI in antimicrobial susceptibility testing with CF-301 (CLSI, AST Subcommittee Meeting, January, 2018). Activity of CF-301 against S. epidermidis in HSF (Discovery Life Sciences) was similarly determined using BMD in caMHB with 50% HSF (caMHB-HSF). The caMHB-HSF supports the growth and biofilm formation of S. epidermidis as well as S. aureus.

[8] = after a single dose of 10 mg/kg
[9] = system: S. aureus (MRSA strains MW2, ATCC BAA-42); test: MIC by broth microdilution (CLSI) in caMHB-HSF and caMHB-HSD; type: cell-based
[10] = Pathological slides, rat osteomyelitis model (Example 6); type: in vivo, Sprague Dawley rats; conditions: rats, pp296 line: 40 mg/kg daily dosing (Treatment Group 3)
Text: These findings are consistent with acute osteomyelitis, and no appreciable differentiation between groups could be made.

[11] = DAP 60 mg/kg s.c. twice daily for 4 days
[12] = CF-301 into the joint during arthroscopic DAIR, daptomycin, linezolid then suppressive tedizolid
[13] = caMHB-HSD (25% horse serum, 0.5 mM DTT)
[14] = caMHB-HSF (50% human synovial fluid)
[15] = groups pp296 40 mg/kg, without or with DAP
[16] = groups pp296 100 mg/kg, without or with DAP
[17] = pp296 40 mg/kg i.v. daily for 4 days (combination: plus DAP 60 mg/kg s.c. twice daily for 4 days)
[18] = pp296 100 mg/kg i.v. single dose on treatment day 1 (combination: plus DAP 60 mg/kg s.c. twice daily for 4 days)

Molecule: CCCCCCCCCC(=O)N[C@@H](Cc1c[nH]c2ccccc12)C(=O)N[C@H](CC(N)=O)C(=O)N[C@@H](CC(=O)O)C(=O)N[C@@H]1C(=O)NCC(=O)N[C@@H](CCCN)C(=O)N[C@@H](CC(=O)O)C(=O)N[C@H](C)C(=O)N[C@@H](CC(=O)O)C(=O)NCC(=O)N[C@H](CO)C(=O)N[C@@H]([C@H](C)CC(=O)O)C(=O)N[C@@H](CC(=O)c2ccccc2N)C(=O)O[C@@H]1C [daptomycin, reference compound]
- Minimum biofilm inhibitory concentration (MRSA IDRL-6169 biofilm): 1 µg/mL
- minimum biofilm bactericidal concentration (MRSA IDRL-6169 biofilm): 2 µg/mL
- mean (±SD) bacterial density (MRSA IDRL-6169 [1]): 4.09 (±0.37) log10 cfu/gram of bone
- reduction compared to untreated rats (MRSA IDRL-6169 [1]): 1.04 log10 cfu/gram of bone
- Body weight on Day 1 ([2]; group DAP 60 mg/kg): 339 g
- Mean log10 CFU/g [3, 11]: 4.29 log10 CFU/g
- Median log10 CFU/g [3, 11]: 4.79 log10 CFU/g
- Mean log10 CFU/g reduction [3, 11]: −1.14 log10 CFU/g
- MIC (MRSA IDRL-6169 [4]; Staphylococcus aureus, read-out: minimum inhibitory concentration): 0.5 µg/mL (≈ 0.309 µM)

B1: CF-301: PlySs2 lysin of SEQ ID NO: 1, anti-staphylococcal lysin encoded within a prophage of the Streptococcus suis genome (protein, listed as Streptococcus suis)
chain: MTTVNEALNNVRAQVGSGVSVGNGECYALASWYERMISPDATVGLGAGVGWVSGAIGDTISAKNIGSSYNWQANGWTVSTSGPFKAGQIVTLGATPGNPYGHVVIVEAVDGDRLTILEQNYGGKRYPVRNYYSAASYRQQVVHYITPPGTVAQSAPNLAGSRSYRETGTMTVTVDALNVRRAPNTSGEIVAVYKRGESFDYDTVIIDVNGYVWVSYIGGSGKRNYVATGATKDGKRFGNAWGTFK
- ethidium bromide staining of biofilm structures formed by NRS6 in human synovial fluid ([5]; 0.1 or 1 μg/mL CF-301 for 2 hours, UV fluorescent imaging, FIG. 2): eliminated
- S. epidermidis biofilms formed in HSF, Alexa Fluor 488-WGA / propidium iodide fluorescence microscopy ([5]; two hours of treatment with 0.1 ug/mL or 1 ug/mL CF-301, FIG. 3): eliminated
- Minimum biofilm inhibitory concentration (MRSA IDRL-6169 biofilm): 1 µg/mL
- minimum biofilm bactericidal concentration (MRSA IDRL-6169 biofilm): 4 µg/mL
- outcome after 1 year follow up in the two septic arthritis patients [6, 12]: favorable
- outcome at 6 months in the two patients with fistula at baseline [6, 12]: recurrence of the fistula
- adverse events during arthroscopy ([6]; four patients, CF-301 (75 mg/mL; 30 mL) into the joint during arthroscopy, followed by antibiotics): No adverse events
- mean (±SD) bacterial density (MRSA IDRL-6169 [1]): 4.65 (±0.65) log10 cfu/gram of bone
- reduction compared to untreated rats (MRSA IDRL-6169 [1]): 0.65 log10 cfu/gram of bone
- CF-301 MIC, MIC50 [7, 13]: 0.5 µg/mL
- CF-301 MIC, MIC90 [7, 13]: 0.5 µg/mL
- CF-301 MIC, Range [7, 13]: 0.25 to 2 µg/mL
- CF-301 MIC, MIC50 [7, 14]: 0.015 µg/mL
- CF-301 MIC, MIC90 [7, 14]: 0.125 µg/mL
- CF-301 MIC, Range [7, 14]: 0.0078 to 2 µg/mL
- Levels of CF-301 in bone relative to plasma levels [8]: 10-15%
- minimum inhibitory concentration (MRSA IDRL-6169 [4]): 0.5 µg/mL
- CF-301 MIC ([9]; S. aureus strain ATCC BAA-42, caMHB-HSD): 0.5 µg/mL
- CF-301 MIC ([9]; S. aureus strain ATCC BAA-42, caMHB-HSF): 0.03 µg/mL
- CF-301 MIC ([9]; S. aureus strain MW2, caMHB-HSD): 0.5 µg/mL
- CF-301 MIC ([9]; S. aureus strain MW2, caMHB-HSF): 0.03 µg/mL

B2: pp296: modified PlySs2 lysin, SEQ ID NO: 6; L92W, V104S, V128T and Y137S, Y164K, N184D, S198Q (protein)
chain: B1 chain with L92W, V104S, V128T, Y137S, Y164K, N184D, S198Q
- Pathological slides (marrow cellularity) [10]: only possible hypercellularity
- Body weight on Day 8 [2, 15]: 313 g
- Body weight on Day 8 [2, 16]: 312 g
- Body weight on Day 12 ([2]; pp296 40 mg/kg i.v. daily for 4 days): 311 g
- Body weight on Day 12 ([2]; pp296 100 mg/kg i.v. single dose): 312 g
- Body weight on Day 1 [2, 15]: 342 g
- Body weight on Day 1 [2, 16]: 344 g
- Mean log10 CFU/g [3, 17]: 4.94 log10 CFU/g
- Median log10 CFU/g [3, 17]: 5.27 log10 CFU/g
- Mean log10 CFU/g [3, 18]: 4.81 log10 CFU/g
- Median log10 CFU/g [3, 18]: 4.99 log10 CFU/g
- Mean log10 CFU/g reduction [3, 17]: −0.49 log10 CFU/g
- Mean log10 CFU/g reduction [3, 18]: −0.61 log10 CFU/g
